Laboratory results: patent US20220098328A1, “ANTIBODIES TO M(H)DM2/4 AND THEIR USE IN DIAGNOSING AND TREATING CANCER” (NomoCan Pharmaceuticals LLC, priority 2017, published 2022)

Tests used:
[1] = tested on: plasma membrane M(H)DM2/4; test: Plasma membrane M(H)DM2/4 after treatment of cells with chemotherapeutic agents (in vitro); assay type: cell-based; conditions: data not shown
[2] = tested on: human pancreatic cancer MIA PaCa-2 cells; test: Cell-ELISA on intact cells; assay type: cell-based
Experimental: (§1) Cell-ELISA Methodology: 8,000-10,000 cells/well of a 96-well microplate were grown overnight. The next day, unbound cells were washed off with sterile 1×PBS. The cells in each well were fixed with freshly prepared 4% buffered paraformaldehyde (pH 7.2) for 1 hour followed by 3 washes with 1×PBS. The wells were then blocked with 5% BSA in PBS (100 μl/well) for 2 hours at room temperature. Microplate wells were then washed 5 times with 300 μl of ice cold 1×PBS. MAbs NMC-103, NMC-204 or NMC-303 at 1 μg/mL in 1% BSA/PBS were then incubated with various cancer or normal untransformed cells for 2 hours at room temperature. Wells were then washed with 300 μl of ice-cold 1×PBS for 5 times and corresponding secondary antibody HRP-GaM F(ab′)2 diluted 1:2500 or 1:5000 in PBS with 1% BSA were added at 100 μl/well for 1 hour at room temperature followed by washing 5 times with 300 μl of ice-cold 1×PBS. TMB Substrate Solution (1-Step™ Ultra TMB-ELISA, ThermoFisher, Cat. No. 34028) was then added at 50 μL to each microplate well and incubated at room temperature for 30 minutes. The reaction was stopped by addition of 50 μL of stop solution (ThermoFisher, Cat. No. SS04) to each well and absorbance of each well was measured at OD450 nm. The absorbance value of each experimental well was corrected for the absorbance value obtained from wells treated with isotype-identical mAbs included in each experiment. The results are thus expressed as “relative binding”.
(§2) In a 96-well microplate, 15,000 cells/well were cultured overnight. The next day, unbound cells were washed off with sterile 1×PBS. The cells in each well were fixed with freshly prepared 4% buffered paraformaldehyde (pH 7.2) for 1 hour, followed by 3 washes with 1×PBS. The wells were then blocked with 5% BSA in PBS (100 μl/well) for 2 hours at room temperature. Microplate wells were then washed 5 times with 300 μl of ice cold 1×PBS. Monoclonal antibodies NMC-H103 (VH4/VK3) or NMC-C303 at 5 μg/mL in 1% BSA/PBS were then incubated with various cancer cells for 2 hours at room temperature. Wells were then washed with 300 μl of ice-cold 1×PBS for 5 times and corresponding secondary antibody HRP-GaH F(ab′)2 diluted 1:2000 or 1:4000 in PBS with 1% BSA were added at 100 μl/well for 1 hour at room temperature followed by washing 5 times with 300 μl of ice-cold 1×PBS. TMB Substrate Solution (1-Step™ Ultra TMB-ELISA, ThermoFisher, Cat. No. 34028) was then added at 50 μL to each microplate well and incubated at room temperature for 30 minutes. The reaction was stopped by addition of 50 μL of stop solution (ThermoFisher, Cat. No. SS04) to each well and absorbance of each well was measured at OD450 nm. The absorbance value of each experimental well was corrected for the absorbance value obtained from wells treated with isotype-identical mAbs included in each experiment.

[3] = tested on: human, murine, rabbit protein; set-up: key: H—binds to human protein; M—binds to murine protein; R—binds to rabbit protein; conditions: cited from earlier work
[4] = target: E-Cadherin on intact mouse LL/2 cancer cells (mouse) (UniProt P09803); test: cell-based ELISA on intact LL/2 cells, 5 µg/mL, OD450
Chain of E-Cadherin on intact mouse LL/2 cancer cells (mouse) (P09803 157-884): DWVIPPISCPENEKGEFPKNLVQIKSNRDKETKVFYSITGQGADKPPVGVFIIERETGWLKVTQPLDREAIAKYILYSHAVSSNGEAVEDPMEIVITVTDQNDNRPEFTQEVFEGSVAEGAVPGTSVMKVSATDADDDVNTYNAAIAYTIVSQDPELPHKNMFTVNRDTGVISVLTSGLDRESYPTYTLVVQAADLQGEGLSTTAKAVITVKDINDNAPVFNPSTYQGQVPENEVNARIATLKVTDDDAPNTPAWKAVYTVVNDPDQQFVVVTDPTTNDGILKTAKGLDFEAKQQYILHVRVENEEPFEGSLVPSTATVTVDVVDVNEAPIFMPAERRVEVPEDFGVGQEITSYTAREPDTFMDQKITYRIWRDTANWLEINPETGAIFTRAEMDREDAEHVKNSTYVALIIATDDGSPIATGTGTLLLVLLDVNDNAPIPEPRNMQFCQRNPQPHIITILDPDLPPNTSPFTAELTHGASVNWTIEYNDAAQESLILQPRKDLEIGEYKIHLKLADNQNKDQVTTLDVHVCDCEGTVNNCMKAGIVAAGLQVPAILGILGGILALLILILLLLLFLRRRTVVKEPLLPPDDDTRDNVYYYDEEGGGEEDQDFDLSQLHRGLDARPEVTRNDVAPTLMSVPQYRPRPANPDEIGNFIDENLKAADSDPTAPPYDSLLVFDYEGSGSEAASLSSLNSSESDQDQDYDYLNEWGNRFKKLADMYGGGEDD

[5] = target: NMC-P3 peptide (SEQ ID NO:3), amino acids 475-491 of HDM2 (Homo sapiens, UniProt Q00987); test: Peptide-ELISA; assay type: binding; conditions: 5 μg/ml peptide on plate, OD 450 nm
Experimental: Peptide-ELISA Methodology: 5 μg/ml of NMC-P1, NMC-P2 or NMC-P3 peptide antigen was dried onto a 96-well ELISA plate overnight. Plates were then blocked with 5% BSA in 1× phosphate-buffered saline (PBS) (100 μl/well) for 2 hours at room temperature. Microplate wells were then washed 5 times with 300 μl of ice cold 1×PBS. Appropriate dilutions of monoclonal antibodies NMC-103, NMC-204 or NMC-303 in 1% bovine serum albumin (BSA) in PBS solution were then incubated with their corresponding peptides (NMC-P1, NMC-P2 or NMC-P3, respectively) at room temperature. After 2 hours, wells were washed 5 times with 300 μl ice-cold PBS/well and 100 μl secondary antibody (HRP-labeled Goat anti-Mouse F(ab′)2 H&L cross-adsorbed secondary antibody (HRP-GaM F(ab′)2), ThermoFisher, Cat. No. A24524) diluted 1:2500 to 1:5000 in PBS-1% BSA solution were added and the incubation continued at room temperature. After 1 hour, the wells were washed again 5 times with 200 μl of ice-cold PBS and 50 μL of the TMB Substrate Solution (1-Step™ Ultra TMB-ELISA, ThermoFisher, Cat. No. 34028) were added to each well and color was allowed to develop for 30 minutes at room temperature. The reaction was stopped by addition of 50 μL of stop solution (ThermoFisher, Cat. No. SS04) to each well and absorbance of each well was read immediately for optical density (OD) at 450 nm.

[6] = target: T1, recombinant HDM2 protein (GST tagged) (Homo sapiens, UniProt Q00987); test: Western blot (immunoblot); assay type: binding; conditions: 1 μg/well protein, antibody 1 μg/ml; band at approximately 83 kD
T1 construct: NMC-103, NMC-204 and NMC-303 reacted with the recombinant full-length HDM2 protein; purchased Abcam ab188727
T1 sequence (Q00987 whole entry): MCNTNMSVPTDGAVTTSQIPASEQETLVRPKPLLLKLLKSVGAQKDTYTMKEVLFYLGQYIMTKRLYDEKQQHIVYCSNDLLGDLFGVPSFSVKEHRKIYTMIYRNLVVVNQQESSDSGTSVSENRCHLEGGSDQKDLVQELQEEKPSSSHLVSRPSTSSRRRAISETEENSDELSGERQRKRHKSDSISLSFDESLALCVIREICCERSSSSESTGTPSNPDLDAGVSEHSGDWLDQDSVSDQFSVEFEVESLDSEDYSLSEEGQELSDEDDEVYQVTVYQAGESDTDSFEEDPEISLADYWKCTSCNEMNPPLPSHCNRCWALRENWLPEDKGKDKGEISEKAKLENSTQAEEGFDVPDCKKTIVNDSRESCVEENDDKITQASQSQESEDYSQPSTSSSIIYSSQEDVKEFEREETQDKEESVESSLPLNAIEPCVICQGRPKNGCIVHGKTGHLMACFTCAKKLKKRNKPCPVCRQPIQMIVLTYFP
Experimental: Western Blot: As for immunoblots, 1 μg/well of recombinant HDM2 protein (GST tagged, Abcam, Cat. No. ab188727) was separated on 8-16% sodium dodecyl sulfate (SDS) polyacrylamide gel and proteins were then transferred to polyvinylidene difluoride (PVDF) membrane. The membrane was blocked with 5% milk followed by incubation with monoclonal antibody NMC-103, NMC-204 or NMC-303 at 1 μg/ml in 1% milk in PBS for 2 hours. The membrane was then washed ×3 times (10 minutes each) and incubated for 1 hour with corresponding HRP-conjugated secondary antibody (Goat anti-Mouse IgG (H&L), F(ab′)2 Frag Cross-adsorbed HRP (HRP-GaM F(ab′)2), ThermoFisher, Cat. No. A24524) diluted 1:5000 in 1% BSA-PBS. The membrane was then washed ×3 times and incubated with Pierce ECL Plus Western Blotting Substrate (ThermoFisher, Cat. No. #32132) for 10 min before developing on a LICOR Scanner.

[7] = tested on: human breast cancer MCF-7 cells; test: Cell-ELISA on intact cells; assay type: cell-based; conditions: MCF-7; mAb 1 μg/mL; fixed, non-permeabilized cells
Experimental: as §1, §2

[8] = tested on: human melanoma A2058 cells; test: Cell-ELISA on intact cells; assay type: cell-based; conditions: A2058; mAb 1 μg/mL; fixed, non-permeabilized cells
Experimental: as §1, §2

[9] = tested on: human ovarian cancer OVCAR-3 cells; test: Cell-ELISA on intact cells; assay type: cell-based; conditions: OVCAR-3 (resistant to adriamycin, melphalan, cisplatin); mAb 1 μg/mL; fixed, non-permeabilized cells
Experimental: as §1, §2

[10] = tested on: mouse Lewis Lung LL/2 cells; test: Cell-ELISA on intact cells; assay type: cell-based; conditions: LL/2; mAb 1 μg/mL; fixed, non-permeabilized cells
Experimental: as §1, §2

[11] = tested on: mouse colon cancer MC-38 cells; test: Cell-ELISA on intact cells; assay type: cell-based; conditions: MC-38; mAb 1 μg/mL; fixed, non-permeabilized cells
Experimental: as §1, §2

[12] = tested on: mouse pancreatic Panc02 cells; test: Cell-ELISA on intact cells; assay type: cell-based; conditions: Panc02; mAb 1 μg/mL; fixed, non-permeabilized cells
Experimental: as §1, §2

[13] = tested on: primary patient-derived human ovarian cancer OVCA4 cells; test: Cell-ELISA on intact cells; assay type: cell-based; conditions: OVCA4; mAb 1 μg/mL; fixed, non-permeabilized cells
Experimental: as §1, §2

[14] = tested on: human triple negative breast cancer HCC1806 cells; test: Cell-ELISA on intact cells; assay type: cell-based; conditions: mAb 1 μg/mL, fixed, non-permeabilized cells
Experimental: as §1

[15] = tested on: human uveal melanoma 92.1 cells; test: Cell-ELISA on intact cells; assay type: cell-based; conditions: mAb 1 μg/mL, fixed, non-permeabilized cells
Experimental: as §1

[16] = tested on: normal human peripheral blood mononuclear cells (PBMCs); test: Cell-ELISA on intact cells; assay type: cell-based; conditions: freshly isolated normal human PBMCs
Experimental: as §1

Q: For `CC(=O)O[C@H]1C(=O)[C@@]2(C)[C@H]([C@H](OC(=O)c3ccccc3)[C@]3(O)C[C@H](OC(=O)[C@H](O)[C@@H](NC(=O)c4ccccc4)c4ccccc4)C(C)=C1C3(C)C)[C@]1(OC(C)=O)CO[C@@H]1C[C@@H]2O` [Paclitaxel], which “plasma membrane M(H)DM2/4 level of treated cells” value [1] is on record?
A: increase in plasma membrane M(H)DM2/4

Q: Which “binding to intact, EDTA-released MiaPaCa-2 cells, cell-ELISA” value ([2]; EDTA 10 mmols, pH 7.2, 5 min, 37° C.) does the source give for Cytochrome C [reference compound] here?
A: only minimal binding

Q: What about the “Species Reactivity” value [3] of the same molecule?
A: H

Q: With E-cadherin G10 (SC-8426) (antibody) as the molecule, how does the average OD reading [4] read?
A: 1.49 OD

Q: Which “plasma membrane M(H)DM2/4 level of treated cells” value [1] does the source give for `Nc1ccn([C@@H]2O[C@H](CO)[C@@H](O)C2(F)F)c(=O)n1` [Gemcitabine] here?
A: increase in plasma membrane M(H)DM2/4

B1: NMC-303: mouse monoclonal antibody of the IgM isotype that binds to NMC-P3 (SEQ ID NO:3); VH SEQ ID NO:40, VL SEQ ID NO:41 (antibody, V domains shown)
VH: QVQLQQPGAELVKPGASVKLSCKASGYTFTSYYMYWVKQRPGQGLEWIGGINPRNGGTNFNEKFKNKATLTADKSSTTAYMQLSSLTSEDSAVYYCTRSGYYAMDYWGQGTSVTVSS
VL: DIQMTQTTSSLSASLGDRVTISCRASQDISNFLNWYQQKPDGTVKLLIYYTSRLHSGVPSRFSGSGSGTDYSLTISNLEQEDIATYFCQQGNTLPRTFGGGTKLEIK
modifications: mAb NMC-303 Heavy Chain Variable Region; mAb NMC-303 Light Chain Variable Region
Q: Which “binding to NMC-P3 peptide” value [5] does the source give for B1 here?
A: bound

Q: What about the “reactivity with recombinant full-length HDM2-GST protein (immunoblot)” value [6] of the same molecule?
A: reacted

Q: And the “relative binding (reactivity) to intact cells, cell-ELISA” value (from here on “relative binding (reactivity)”) [7]?
A: reactivity

Q: And the “relative binding (reactivity)” value [8]?
A: reactivity

Q: And the “relative binding (reactivity)” value [9]?
A: reactivity

Q: And the “relative binding (reactivity)” value ([2]; MIA PaCa-2, mAb 1 μg/mL, fixed, non-permeabilized cells)?
A: reactivity

Q: And the “binding to intact MIA PaCa-2 cells when competed with NMC-P3 peptide” value ([2]; cell-ELISA peptide competition)?
A: competed

Q: And the “relative binding (reactivity)” value [10]?
A: reactivity

Q: And the “relative binding (reactivity)” value [11]?
A: reactivity

Q: And the “relative binding (reactivity)” value [12]?
A: reactivity

Q: And the “relative binding (reactivity)” value [13]?
A: reactivity

Q: And the “relative binding (reactivity)” value [14]?
A: reactivity

Q: And the “relative binding (reactivity)” value [15]?
A: reactivity

Q: And the “binding to intact normal cells, cell-ELISA” value [16]?
A: virtually no binding
